From the DeepSol protein solubility set

Experiment: soluble on expression in E. coli; label from the status in PepcDB or PDB records

Sequence | soluble on expression in E. coli
CEEPPTFEAMELIGKPKPYYEIGERVDYKCKKGYFYIPPLATHTICDRNHTWLPVSDDACYRETCPYIRDPLNGQAVPANGTYEFGYQMHFICNEGYYLIGEEILYCELKGSVAIWSGKPPICEKV | soluble
EERNDWHFNIGAMYEIENVEGYGEDMDGLAEPSVYFNAANGPWRIALAYYQEGPVDYSAGKRGTWFDRPELEVHYQFLENDDFSFGLTGGFRNYGYHYVDEPGKDTANMQRWKIAPDWDVKLTDDLRFNGWLSMYKFANDLNTTGYADTRVETETGLQYTFNETVALRVNYYLERGFNMDDSRNNGEFSTQEIRAYLPLTLGNHSVTPYTRIGLDRWSNWDWQDDIEREGHDFNRVGLFYGYDFQNGLSVSLEYAFEWQDHDEGDSDKFHYAGVGVNYSFHHHHHH | soluble
NKYFENVSKIKYEGPKSNNPYSFKFYNPEEVIDGKTMEEHLRFSIAYWHTFTADGTDQFGKATMQRPWNHYTDPMDIAKARVEAAFEFFDKINAPYFCFHDRDIAPEGDTLRETNKNLDTIVAMIKDYLKTSKTKVLWGTANLFSNPRFVHGASTSCNADVFAYSAAQVKKALEITKELGGENYVFWGGREGYETLLNTDMEFELDNFARFLHMAVDYAKEIGFEGQFLIEPKPKEPTKHQYDFDVANVLAFLRKYDLDKYFKVNIEANHATLAFHDFQHELRYARINGVLGSIDANTGDMLLGWDTDQFPTDIRMTTLAMYEVIKMGGFDKGGLNFDAKVRRASFEPEDLFLGHIAGMDAFAKGFKVAYKLVKDRVFDKFIEERYASYKDGIGADIVSGKADFRSLEKYALERSQIVNKSGRQELLESILNQYLFAE | soluble
MSLTIFTKERKLLLAVESSCDETSVAVIEDGDKILSNIVASQIKSHQRFGGVVPEVASRHHVEQVTICIEEALTEAKVTPEELSGVAVTYGPGLVGALLIGLSAAKAFAWAHQLPLIPVNHMAGHIYAARFVAPLEFPLMALLVSGGHTELVYMKEDGSFEIVGETRDDAAGEAYDKVGRVLGLPYPSGKEIDALAHEGTDTYQFPRAMLKEDNYDFSFSGLKSAFINTVHNAEQRGEALSTKDLAASFQASVVEVLVTKTIRACQEYPVKQLLIAGGVAANQGLREAMRHAISEQLPAVTLLIPPLKLCGDNAAMIGAAAFIEAEKNHFASYNLNAEPGVSFMTISEEGEGHHHHHH | soluble
MRVALFITCLADHFYPKAGVAPVRLLRALGVKVDFPKGQTCCGQPAFNAGYWDEARPLAKRTLEVFEEAEYVVLPSGSCTSMVKNHYPELLPGNREALAMAEKTYELSQFLVRVLGVEKLGEGLKGRRVAYHHGCHALRELGVREEPLLLLQNAGAEVLPWEAWEECCGFGGLFSVKLPEVSLAMADRKLATLPKAEVLTSTDAGCLLHLAGRLGKKGENLRVAPLATLLWEAYAG | soluble
MLKGKTIYVRPLEVTDAEENLGLQSENRDFFEQFSMIRADDYYTVEGQRKRITEYQERLEKDEEYHFGIFTASDDRLIGTVSLFQIIRGALQTAFIGYFLDKAHNGKGIMTEAVRLVVDYAFHELKLHRIEAGVMPRNLGSMRVLEKAGFHKEGIARKNVKINGVWEDHQVLAILNPDDEQLEHHHHHH | not soluble
SFDRALKPFLKSCHFQTLRDPVDQCVSYHLRSVTEKFPEVHMEVIADYEVHPNRRPKILAQTAAHVAGAAYYYQRQDVDADPWGTQHIAGVCIHPRFGGWFAIRGVMLLPGIEVPNLPPRKPPDCVPTRAGRITLLEGFNFHWRDWTYRDAVTPEERYSEEQKIYFSTPPAQRLALLGLAQPSEHPSTTSELPLSLLTKPQNSRRARSWLSPSVSPPVSPGP | soluble
MKTIVVLGAGYAGLKTVVALQKKLRKEVRIILIDRNPYHYETMRLYEVASGSAPYTRMSYELADVLDKNMNELVVDQVEKIDLKNKTVELTKHKPISYDYCVVGLGFVLSSMGIAGAQENALPMSNVKQAQAIRDHIESEMRAYVKDHDSQHLSIVICGAGFQAIELAGALAQARPCFAQTAGTDPEKITIKMIDGSPRLLPMFQGKLLDYAINLSALEHHHHHH | not soluble
MMNKDLSYCIVLSSEQLSYLAGSKYGIDRMKILNRLIEATVLEQTEYSKKGFAMTLQVGQAALSEVELSCKLGYDKKTISRVIDKMNQLGIVASVQSNRTSIHTQKCVSAWMLDGKRIDNPFYVRMKNRKDGNEKTANRPYNNSILPMKQQHILESNAEANCPTQTQTDNTAVSDETYSPDLSTSPTSSETPVTAYDDKNRNGYDELKAETNNHELLHTPTTTSGYEIAGNGSDNDAAQVNSTSAYPTTTLASPQPLAEEEPTNDQGNDWQL | not soluble
MGSDKIHHHHHHATWITTLGGMDWPRNKAVNASGIRRQQKELCDILDRLKAANFNTVLLQTRLRGDMIYPSAIETFGESLTGSTGGNPGYDPLAFAIGECHKRGMELHAWIVTIPAGNTRQVQLQGRSSVVRKNRTICKLYKGNWYLDPGNPGTKEYLSCIVKEITSRYDIDGIHFDYIRYPEQADNFPDKDTYRKYGKGKELKQWRRDNITDIVHRLYTDIKTIKPWVKVSSSPIGKYRDTNRYPSRGWNAYHVVYQDAQKWLKEGIHDALFPMMYFQGNNFYPFALDWKENCGNRWIVPGLGIYFLSPDEQNWPLDEIVRQLHFTRQIKLNGQAYFRNRFLLNNTKGIWDELQENFYTTPALIPPMTWMDSIPPSTPAMPSLQLLPDGKMHMSWQISTDNNGGLVTYHLYASDTYPVDITDAGNLLETYLTHTEYEYTPISPWRQKRYFAVTAADRFGNESAPLELNAISETDMPLLNDGDILTLPEIKEAKTVKIFTVTGEEIKYFVYAPQMSIASLPGGFYTVYILNNAGAQTFVGTIVK | not soluble
MAHHHHHHMLSGAEELISDLFRRTSTTSNAVEFILSSNSAAYHDVMQRICNSNQPQLVKGILRTAQSLLPTELFQVFGKSVVPVLLLFAPAVLRRVGELLAAPKETPLSTCGEWDAFTSFITGIHCKLLASPECRATNVRSLPPPPVAARHTPSWSKVFHGEENVSEGVPPPQPSTDCEVNVTAIGTDNYGSLLCTIVCGLSHLLACVATPPCVIGGPGLTTLCNEVMRLLSSTPVFCYASKDANLQIACVSLLLSVLNLGKAVQGCVASSFMPTMRRWFDLTLYSANAVCIQLLFPYILHARAHR | not soluble
MGSDKIHHHHHHMCPLMAENHEVIEEGNSSELPLSAEDAKKLTELAENVLQGWDVQAEKIDVIQGNQMALVWKVHTDSGAVCLKRIHRPEKKALFSIFAQDYLAKKGMNVPGILPNKKGSLYSKHGSFLFVVYDWIEGRPFELTVKQDLEFIMKGLADFHTASVGYQPPNGVPIFTKLGRWPNHYTKRCKQMETWKLMAEAEAAAPFSQLYLQEIDGFIEDGLRIKDRLLQSTYVPWTEQLKKSPNLCHQDYGTGNTLLGENEQIWVIDLDTVSFDLPIRDLRKMIIPLLDTTGVWDDETFNVMLNAYESRAPLTEEQKQVMFIDMLFPYELYDVIREKYVRKSALPKEELESAFEYERIKANALRQLI | not soluble
MLDPRLSVAPMVDRTDRHFRFLVRQVSLGVRLYTEMTVDQAVLRGNRERLLAFRPEEHPIALQLAGSDPKSLAEAARIGEAFGYDEINLNLGCPSEKAQEGGYGACLLLDLARVREILKAMGEAVRVPVTVKMRLGLEGKETYRGLAQSVEAMAEAGVKVFVVHARSALLALSTKANREIPPLRHDWVHRLKGDFPQLTFVTNGGIRSLEEALFHLKRVDGVMLGRAVYEDPFVLEEADRRVFGLPRRPSRLEVARRMRAYLEEEVLKGTPPWAVLRHMLNLFRGRPKGRLWRRLLSEGRSLQALDRALRLMEEEVGEEGEKEKPGPRGQREAAPGPAREGV | soluble
MSLNVDVLLKNVWLYQTVTQTFVQRNVAIKNDKFYYIYEEENVNLQPQKTINAENQWMIPGLIDAHMHIESSMTTPTIFSKAVVRYGVTTVIADAHEMANVFGLEGLKAFMAAETELDIFHAIPSSVPSTTPELETTGGIIGLAEVAELLKEPKVICLGEAMNFKGISYEPDSLIRQIIDLCQKQRPTMPLEGHCPKIEDQELADFLYSGITSDHTHQFPKTLKEKIEAGVFIQFQNKSITPENIQVIVDNDFYNYASIITDDVMADDLLKGHLNENVKKAVHAGLPIEKAIYMATYTPAKRMGLHDRGEIAPGKKADFLLLNDLESFDINTVYKSGKVVFEKGEPFHYPEKIEEFPATYQQTIQCKKLTEEDLLLKVATTKETVRCNVIQKQEIGTFTERITKEIPVENGLLQWQKANCALLIVMERYGKNGNISFSLMDQPLSEKGAIATTWAHDHHNLMVMGNTIEDILLAQNELLAMQGGYLVASDQQVMATCPLPIGGILSQAPIEQLGASLQKVRQAMQALGYQNMNEIMSFSTLSLPVSPAIKVTDFGMMDTKSQRFYPLVFPEDGVLLHENTHEGHHHHHH | soluble
MGHHHHHHSHMKYGNPNYGGMKGILSNSWKRRYHSRRIQRDVIKKRALIGDDVGLTSYKHRHSGLVNVPEEPIEEEEEEEEEEEEEEEEDQDMDADDRVVVEYHEELPALKQPRERSASRRSSASSSDSDEMDYDLELKMISTPSPKKSMKMTMYADEVESQLKNIRNSMRADSVSSSNIKNRIGNKLPPEKFADVRHLLDEKRQHSRPRPPVSSTKSDIRQRLGKRPHSPEKAFSSNPVVRREPSSDVHSRLGVPRQDSKGLYADTREKKSGNLWTRLGSAPKTKEKNTKKVDHRAPGAEEDDSELQRAWGALIKEKEQSRQKKSRLDNLPSLQIEVSRESSSGSEAES | not soluble
MALASAADFFAQQHPSYGRHIGQLYERAVKNDLSFTHTFVNPQVNRSLGYMEEDGEPIAAKVVRETADGLIIKGARLLATQGGMTDELLVLPAGGALLGDEYMYAFSIPSNAPGLKFVCRPSLAAGALVFDAPLSSRFDEIDAMVVFDEVLVPWDRVFFYKNAWFAKEMEEETHLAIMLLHQVLARRIVKTEFFLGTVELLSEAIQIGGYQHVQEKIGEIAAALEALRGMLLASELHAKPDRRGTMVPDPAPLYAAAFLYPRLYPRFADIIQLLGASGLVCLPTEADFSSPLRPDLDRYLQAATLPAEQRVRLFRFAWDMAMSAFGTRQTLYERFFFGDPARFATTFYHRYDREACAEIVRQFLDSEQR | not soluble
MNGGCDLWIGCARWLRDMKVLTTDKNGTMLEFASVLRDGILLCRLANTLVPNGIDQKKIMRTNQPSPFLCCNNINYFAMFCKTYFNLEDADLFTAEDLYYMNGFQKVLKTLSFLSHTKESLSRGVDPFPDTDNNQEGTSNGSEFEDDVEIYQSLHDNIENVDPNRTIYGPITSADPEEQQSEQLYDRIVTNRKPSMNENDLQNTPTLKRNRCIRELYDTEKNYVAQALVTIIKTFYEPLKGIIPTSDYNIIFGNIEEINVLHTALLADLEYPVKVALGLSDATPPRPISLNECVPQTIGEVFIKYRDQFLAYGKYCSNLPDSRKLSNELLKTNEFISRNINELTAQGNCKFGMNDLLCVPFQRLTKYPLLLKELQKKTDLASPDRKSLEEAVEVMEDVCNYINEESRDTNAIKVIDEIEQSITDLSMPLNVKLHDYGRVNLDGEVKMAESTLTQAGKPKQRYIFLFDKVIVVCKAANKVMAAKTTGASARTNTFTYKNAYVMSELTIDKNASLDVKSGGTITRRTQYVIIMTRDRNENNEITQLTFYFKNEATRNNWMTALLLSKSNVSPTDYLRDTNHKVAFHSFRVDVKNPATCDVCDKLMKGLQYQGYKCEFHEGDIVVANSNSTPSDLSYLQFAKGDRIEVIKMQGHNRFTGCLINNRNRTGLVHLDHVSQSRTTSMIGLSPIDSPAGSIAPRVVRNESTVLPNKLLSDGSSRSLSGPHGSRSSRNSSSSTINGSMDSVPRQQDYVNTEISEFLWYMGEMERAKAESTLKGTPNGTFLVRYSKNRKQTAISLSYKNDVKHMIIEQNSDGKVYLDEDYIFNSTVELVQYYRSNNLIEIFAALDTCLKNPYSQCKVFKAVHDYDAPSPNNEGKFLSFKTGDIVVLLDTVGEDRGWWKGQVNNKSGFFPLSYVKPYDPATEGSSSPVTPTSSSS | not soluble
